Assay results taken from patent EP4786489A1, “IL-22 MUTANT, PREPARATION METHOD THEREFOR, AND USE THEREOF” (Nanjing Novoacine Biotechnology Co., Ltd., priority 2023, dated 2025).

Experiments:
SAA = test: Mouse PD preference study: plasma SAA; assay type: in vivo, mice; details: at equivalent or superior Reg3β Cmax: 60K-PEG-IL22-D109C 0.1 mg/kg vs 60K-PEG-IL22-P120C 0.3 mg/kg vs IL-22-Fc 1 mg/kg, s.c.
Procedure: Based on the in vitro preference results and preliminary PD screening results, the molecules 60k-PEG-IL22-D109C and 60k-PEG-IL22-P120C were selected. PD testing was performed in three mice per dose group at different dose levels according to the method described in Example 14, including the pharmacodynamic-related molecule Reg3β and the inflammation-related molecule SAA. The control was IL-22-Fc. Blood samples were collected before dosing and at 4, 24, 48, 72, 96, 144, 192, 264, and 336 hours after dosing. Plasma was separated using anticoagulated blood samples. For the control molecules wt IL-22 and hB3-his, samples were collected only up to 96 hours.
The detection method for SAA was as follows: a kit containing detecting antibody pairs and positive controls (Abcam, Ab216059) was used to detect SAA concentrations in appropriately diluted plasma samples. The assay was performed according to the manufacturer's instructions. Sa-HRP (Pierce 21126) was used for conjugation. After washing, tetramethylbenzidine peroxidase substrate (TMB, Surmodics, TMBS-1000-01) was added for color development for 10 minutes. The reaction was terminated with 2 M sulfuric acid, and the plate was read at 450 nm with 630 nm as the reference using a microplate reader. SAA was measured before dosing and at 24, 48, 72, 96, and 144 hours after dosing. The original SAA concentration in each sample was calculated. […]

[1] = Mouse PK, plasma concentration by ELISA; assay type: in vivo; details: single s.c. 1 mg/kg, male Balb/C mice
Procedure: Male Balb/C mice (n = 4 per group) were administered a single subcutaneous injection at a dose of 1 mg/kg. Blood samples were collected before dosing and at 4 (no samples were collected at this time point for 60k-PEG-IL22-D109C and 60k-PEG-IL22-P120C), 8, 24, […], 48, 72, 96, and 120 hours after dosing. Anticoagulated blood was used to prepare plasma.
The concentrations of each test candidate in plasma were quantified by ELISA. Anti-IL22 Antibody (Sino Biological, 13059-MM24), diluted in PBS to 2 µg/mL, was used for coating. Standard curves of each test candidate and plasma samples were diluted to fall within the linear range of detection. Recombinant Anti-IL22 Antibody (Sino Biological, 13059-R034-H) was used for detection. The original concentration of each test candidate in the samples was calculated using a four-parameter fit of the standard curve for each test candidate. Pharmacokinetic parameters of each test candidate in mouse plasma were analyzed (Figure 12). Table 13. Dosing information for the mouse PK study

B1: 60K-PEG-IL22-P120C: IL-22 cysteine mutant, conjugation site 87, PEG-maleimide 60kD (conjugate)
chain: APISSHCRLDKSNFQQPYITNRTFMLAKEASLADNNTDVRLIGEKLFHGVSMSERCYLMKQVLNFTLEEVLFPQSDRFQPYMQEVVCFLARLSNRLSTCHIEGDDLHIQRNVQKLKDTVKKLGESGEIKAIGELDLLFMSLRNACI
- SAA Cmax compared with IL-22-Fc (SAA): significantly lower
- AUClast [1]: 105.2029 µg·h/mL
- Cmax [1]: 4184.95 ng/mL
- MRT [1]: 20.17 h
- T1/2 [1]: 11.62 h
